In this data set the target is Ku70 (in Ku70/Ku80ΔC);Ku80ΔC (in Ku70/Ku80ΔC) (human;human, UniProt P12956;P13010 1-609;1-590, |). Briefly: EMSA. As to conditions: protein: recombinant;recombinant; tags: N-terminal Strep tag II;; copies: 1;1. (In general: A gel shift assay detects complexes by their altered migration in electrophoresis.)

The text below walks through data of paper PMC3789764.

Chain of Ku70 (in Ku70/Ku80ΔC);Ku80ΔC (in Ku70/Ku80ΔC) (P12956 whole entry, stated change not applied, chain 1 of 2): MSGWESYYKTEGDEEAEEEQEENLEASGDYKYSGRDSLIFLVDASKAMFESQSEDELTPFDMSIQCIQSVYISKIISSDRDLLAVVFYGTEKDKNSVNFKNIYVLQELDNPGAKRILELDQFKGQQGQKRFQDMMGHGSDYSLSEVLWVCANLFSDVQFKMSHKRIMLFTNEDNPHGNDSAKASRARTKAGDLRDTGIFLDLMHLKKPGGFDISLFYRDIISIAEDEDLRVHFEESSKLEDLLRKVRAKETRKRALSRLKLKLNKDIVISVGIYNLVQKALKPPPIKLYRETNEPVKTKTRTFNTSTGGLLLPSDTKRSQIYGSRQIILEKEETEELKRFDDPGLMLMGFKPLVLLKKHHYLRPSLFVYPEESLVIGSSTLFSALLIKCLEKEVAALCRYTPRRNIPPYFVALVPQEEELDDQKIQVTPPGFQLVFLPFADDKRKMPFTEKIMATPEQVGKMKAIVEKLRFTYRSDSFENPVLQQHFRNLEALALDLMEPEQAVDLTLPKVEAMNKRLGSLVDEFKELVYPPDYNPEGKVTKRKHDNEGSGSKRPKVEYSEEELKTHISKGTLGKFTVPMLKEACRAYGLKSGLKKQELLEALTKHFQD
Chain of Ku70 (in Ku70/Ku80ΔC);Ku80ΔC (in Ku70/Ku80ΔC) (P13010 1-590, stated change not applied, chain 2 of 2): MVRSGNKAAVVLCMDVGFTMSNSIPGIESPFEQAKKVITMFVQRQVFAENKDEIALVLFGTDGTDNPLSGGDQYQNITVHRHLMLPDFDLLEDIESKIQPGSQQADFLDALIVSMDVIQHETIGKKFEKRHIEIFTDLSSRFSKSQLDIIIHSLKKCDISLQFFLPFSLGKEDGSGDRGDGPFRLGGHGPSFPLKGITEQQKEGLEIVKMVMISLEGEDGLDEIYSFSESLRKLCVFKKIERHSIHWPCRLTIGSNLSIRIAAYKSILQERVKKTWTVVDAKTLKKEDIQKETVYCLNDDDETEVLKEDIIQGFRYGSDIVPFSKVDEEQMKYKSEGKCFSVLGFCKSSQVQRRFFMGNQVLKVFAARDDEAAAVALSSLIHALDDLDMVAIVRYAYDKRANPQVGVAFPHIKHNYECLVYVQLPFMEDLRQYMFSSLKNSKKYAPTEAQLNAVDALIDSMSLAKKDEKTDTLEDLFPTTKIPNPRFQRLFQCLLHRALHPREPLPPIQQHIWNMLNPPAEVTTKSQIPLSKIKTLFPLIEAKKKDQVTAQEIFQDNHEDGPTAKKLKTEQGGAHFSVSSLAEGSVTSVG

B1: Cy3 19-bp duplex (dsDNA)
DNA 1: GAAAGCTATGGGCGCGGTT
DNA 2: AACCGCGCCCATAGCTTTC
Turning to B1, the binding result is given as “binds”.
